In patent US20190300875A1 (University of California, published 2019):

B6: Arabidopsis cryptochrome 2 (CRY2) (receptor)
chain: MKMDKKTIVWFRRDLRIEDNPALAAAAHEGSVFPVFIWCPEEEGQFYPGRASRWWMKQSLAHLSQSLKALGSDLTLIKTHNTISAILDCIRVTGATKVVFNHLYDPVSLVRDHTVKEKLVERGISVQSYNGDLLYEPWEIYCEKGKPFTSFNSYWKKCLDMSIESVMLPPPWRLMPITAAAEAIWACSIEELGLENEAEKPSNALLTRAWSPGWSNADKLLNEFIEKQLIDYAKNSKKVVGNSTSLLSPYLHFGEISVRHVFQCARMKQIIWARDKNSEGEESADLFLRGIGLREYSRYICFNFPFTHEQSLLSHLRFFPWDADVDKFKAWRQGRTGYPLVDAGMRELWATGWMHNRIRVIVSSFAVKFLLLPWKWGMKYFWDTLLDADLECDILGWQYISGSIPDGHELDRLDNPALQGAKYDPEGEYIRQWLPELARLPTEWIHHPWDAPLTVLKASGVELGTNYAKPIVDIDTARELLAKAISRTREAQIMIGAAPDEIVADSFEALGANTIKEPGLCPSVSSNDQQVPSAVRYNGSKRVKPEEEEERDMKKSRGFDERELFSTAESSSSSSVFFVSQSCSLASEGKNLEGIQDSSDQITTSLGKNGCK
notes: also called AT1G04400

Columns and labels:
FLUC-CRY2 (Arabidopsis) = FLUC-CRY2 (Arabidopsis) (UniProt Q96524); assay: quantitative co-IP (dual-luciferase), anti-Flag beads, HEK293T cells, blue light 30 µmol m^-2 s^-1
[1] = molecular target: B6; assay: summary of the examples
[2] = molecular target: the molecule itself; assay: co-IP, HEK293T cells, control experiment
Flag-hCRY1 = molecular target: T1, Flag-hCRY1 (human, UniProt Q16526 1-586); assay: co-IP with anti-Flag beads, HEK293T cells (FIG. 11)
T1 construct: this is the CRY1 form; not shown: Flag tag
T1 sequence (looked up): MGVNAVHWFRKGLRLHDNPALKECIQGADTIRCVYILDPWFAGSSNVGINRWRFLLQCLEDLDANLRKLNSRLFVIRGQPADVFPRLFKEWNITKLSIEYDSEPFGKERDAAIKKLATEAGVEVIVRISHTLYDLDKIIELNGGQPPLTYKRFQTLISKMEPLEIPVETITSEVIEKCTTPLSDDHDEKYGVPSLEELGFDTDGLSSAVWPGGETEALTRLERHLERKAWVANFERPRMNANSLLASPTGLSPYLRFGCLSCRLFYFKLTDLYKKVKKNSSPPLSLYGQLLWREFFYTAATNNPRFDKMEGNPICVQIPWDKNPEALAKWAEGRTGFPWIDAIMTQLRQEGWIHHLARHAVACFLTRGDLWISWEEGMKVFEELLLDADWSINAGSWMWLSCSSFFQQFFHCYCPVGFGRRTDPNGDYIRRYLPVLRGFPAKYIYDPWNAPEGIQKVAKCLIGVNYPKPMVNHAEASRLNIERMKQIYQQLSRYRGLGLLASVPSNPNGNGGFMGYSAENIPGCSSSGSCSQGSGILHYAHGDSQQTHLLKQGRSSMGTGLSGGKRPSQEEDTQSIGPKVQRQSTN
Procedure: In FIG. 11, HEK293T cells coexpressing Flag-hCRY, Myc-hCRY and GFP-BIC1 or GFP were exposed to 100 μmol m⁻² s⁻¹ blue light for 2 hours (+) or kept in the dark (−). Anti-Flag antibody conjugated beads were used to perform the immunoprecipitations. Flag-hCRY (IP signal) and Myc-hCRY or GFP-BIC1 (co-IP signals) were detected by Flag and Myc or GFP antibody, respectively. […]

[3] = molecular target: T2, GFP-CRY2 (CRY2 fused to green fluorescent protein) (Arabidopsis, UniProt Q96524 1-612); assay: co-IP with GFP-Trap-A from etiolated seedlings co-expressing Myc-CRY2 and GFP-CRY2, blue light 20 sec to 10 min (FIG. 9A)
T2 construct: Expressed in Arabidopsis plants together with Myc-CRY2; not shown: green fluorescent protein
Excerpt: GFP-Trap-A were used to immunoprecipitate GFP-CRY2. GFP-CRY2 (IP signal) and Myc-CRY2 (co-IP signal) were detected by GFP or Myc antibody, respectively. […] HEK293T cells co-expressing FLUC-CRY2 and REN-CRY2 were exposed to blue light (30 μmol·m⁻²·s⁻¹) for the time indicated, lysed, aliquots removed for the measurement of ATL (Adjusted Total Luminescence), and FLUC-CRY2 precipitated by anti-Flag antibody conjugated beads. Photodimerization of CRY2 was quantified by the dual-luciferase assay to calculate the Normalized Dimerization Ratio (NDR) by the formula: NDR=[(REN/LUC)L/(REN/LUC)D]/ATL, where LUC is the LUC luminescence detected for the precipitated FLUC-CRY2, REN is the REN luminescence detected for the co-precipitated REN-CRY2. (REN/LUC)L or (REN/LUC)D were measured in cells exposed to light or darkness, respectively. ATL (Adjusted Total Luminescence) is the cell volume-adjusted sum of LUC and REN luminescence of the cell lysates before immunoprecipitation, in which REN luminescence is converted to the LUC equivalent by the standard curve prepared by analyses of the LUC-REN fusion protein (not shown). ATL represents concentration of the CRY2 protein. […] Flag-CRY2 (IP signal) and Myc-CRY2 or GFP-BIC1 (co-IP signals) were detected by Flag and Myc or GFP antibody, respectively. […]

Flag-CRY2 = molecular target: T3, Flag-CRY2 (Arabidopsis, UniProt Q96524 1-612); assay: co-IP with antibody to Flag, HEK293T cells, dark
T3 construct: not shown: Flag tag
Excerpt: Homodimers are the physiologically active form of plant CRYs (8, 9), but the effect of light on CRY dimerization has not been detected in previous studies (9, 20). This could be explained by, among other interpretations, light-independent CRY dimerization or masking effects of regulatory proteins, such as BICs, on the light-dependent CRY dimerization (9, 20). We reexamined the bluelight dependence of CRY2 dimerization using multiple approaches. In the first experiment, we coexpressed Flag-CRY2 and Myc-CRY2 in HEK293T cells (21-24) and tested the interaction between the two differentially tagged CRY2s by co-IP assay. In the absence of blue light, antibody to Flag coprecipitated little Myc-CRY2 from HEK293T cells expressing similar amounts of Flag-CRY2 and Myc-CRY2 (FIG. 4B and FIG. S12A of Wang et al).

[4] = molecular target: the molecule itself; assay: yeast β-gal assay (FIG. 4A); also immunoblots of HEK293FT lysates (4B, 4C) and plant nuclear proteins (4D, 4E) after blue light
Excerpt: FIG. 4 provides data showing redox-dependent CRY dimerization, and blue-light-induced CRY and BIC interaction. (FIG. 4A) The β-galactosidase (β-gal) assay showing the blue-light-dependent formation of CRY2 dimer. Yeast cells were kept in darkness (D) or illuminated with blue light (B5, 5 μmol m⁻² s⁻¹; B25, 25 μmol m⁻² s⁻¹; B50, 50 μmol m⁻² s⁻¹) for the indicated time. (FIG. 4B) Immunoblot showing the blue-light-induced dimerization of CRY2 expressed in HEK293FT (H293) cells. The cells were lysed, divided into 12 samples and irradiated by blue light (40 μmol m⁻²s⁻¹) for the indicated durations. For β-mercaptoethanol (2-Me) treatment, 6 samples were added with 2-Me to 5% (v/v), and then all the samples were analyzed by western blot using anti-CRY2 antibody. CRY2, monomeric CRY2; (CRY2)2, CRY2 dimer; (CRY2)ₙ, CRY2 oligomer. (FIG. 4C) The H293 cell lysate were prepared in dark, irradiated with blue light for the durations indicated. For the NEM treatment, the samples were added with NEM (50 mM), and then the samples were analyzed by western blot using anti-CRY2 antibody. (FIGS. 4D and E) Dimerization and oligomerization of CRY2 proteins are blue light-induced in vivo. […]

Q: With REN-CRY2 as the molecule, how does the Maximum Photodimerization (Dm, maximum Normalized Dimerization Ratio) (FLUC-CRY2 (Arabidopsis)) read?
A: 4.7

Q: What about the Rate of Photodimerization (D1/2) (FLUC-CRY2 (Arabidopsis)) of the same molecule?
A: 1 min

B1: Blue-light Inhibitor of Cryptochromes 2 (BIC2) (other)
chain: MKNTNLPEETKEPISPGSSHRKQNKTGTKTCFPETTVLSGRDRLKRHREEVAGKVPIPDSWGKEGLLMGWMDFSTFDAAFTSSQIVSARAALMADSGDDAGARGSRPQRLRVESSC
notes: also called Arabidopsis BIC2; AT3G44450
Q: Does B1 bind [1]?
A: binds

B2: human cryptochrome 1 (hCRY1) (other, UniProt Q16526 1-586, looked up)
chain: MGVNAVHWFRKGLRLHDNPALKECIQGADTIRCVYILDPWFAGSSNVGINRWRFLLQCLEDLDANLRKLNSRLFVIRGQPADVFPRLFKEWNITKLSIEYDSEPFGKERDAAIKKLATEAGVEVIVRISHTLYDLDKIIELNGGQPPLTYKRFQTLISKMEPLEIPVETITSEVIEKCTTPLSDDHDEKYGVPSLEELGFDTDGLSSAVWPGGETEALTRLERHLERKAWVANFERPRMNANSLLASPTGLSPYLRFGCLSCRLFYFKLTDLYKKVKKNSSPPLSLYGQLLWREFFYTAATNNPRFDKMEGNPICVQIPWDKNPEALAKWAEGRTGFPWIDAIMTQLRQEGWIHHLARHAVACFLTRGDLWISWEEGMKVFEELLLDADWSINAGSWMWLSCSSFFQQFFHCYCPVGFGRRTDPNGDYIRRYLPVLRGFPAKYIYDPWNAPEGIQKVAKCLIGVNYPKPMVNHAEASRLNIERMKQIYQQLSRYRGLGLLASVPSNPNGNGGFMGYSAENIPGCSSSGSCSQGSGILHYAHGDSQQTHLLKQGRSSMGTGLSGGKRPSQEEDTQSIGPKVQRQSTN
notes: Homodimerization tested with differently tagged copies (Flag-hCRY and Myc-hCRY) co-expressed in HEK293T cells; also called human CRY1
Q: Does B2 bind [2]?
A: binds

B3: GFP-BIC1 (other)
chain: MMNIDDTTSPMAHPIGPSQPPSDQTKQDPPSLPQEAASSVSADKKDLALLEEKPKQSQEEDRVDTGRERLKKHRREIAGRVWIPEIWGQEELLKDWIDCSTFDTCLVPAGISSARTALVEEARRAASASGGLHNRCLILR
notes: Expressed in HEK293T cells; not shown: GFP
Q: Does B3 bind (Flag-hCRY1)?
A: binds

B4: Blue-light Inhibitor of Cryptochromes 1 (BIC1) (other)
chain: MMNIDDTTSPMAHPIGPSQPPSDQTKQDPPSLPQEAASSVSADKKDLALLEEKPKQSQEEDRVDTGRERLKKHRREIAGRVWIPEIWGQEELLKDWIDCSTFDTCLVPAGISSARTALVEEARRAASASGGLHNRCLILR
notes: also called Arabidopsis BIC1; AT3G52740
Q: Does B4 bind [1]?
A: binds

B5: Myc-CRY2 (other)
chain: MKMDKKTIVWFRRDLRIEDNPALAAAAHEGSVFPVFIWCPEEEGQFYPGRASRWWMKQSLAHLSQSLKALGSDLTLIKTHNTISAILDCIRVTGATKVVFNHLYDPVSLVRDHTVKEKLVERGISVQSYNGDLLYEPWEIYCEKGKPFTSFNSYWKKCLDMSIESVMLPPPWRLMPITAAAEAIWACSIEELGLENEAEKPSNALLTRAWSPGWSNADKLLNEFIEKQLIDYAKNSKKVVGNSTSLLSPYLHFGEISVRHVFQCARMKQIIWARDKNSEGEESADLFLRGIGLREYSRYICFNFPFTHEQSLLSHLRFFPWDADVDKFKAWRQGRTGYPLVDAGMRELWATGWMHNRIRVIVSSFAVKFLLLPWKWGMKYFWDTLLDADLECDILGWQYISGSIPDGHELDRLDNPALQGAKYDPEGEYIRQWLPELARLPTEWIHHPWDAPLTVLKASGVELGTNYAKPIVDIDTARELLAKAISRTREAQIMIGAAPDEIVADSFEALGANTIKEPGLCPSVSSNDQQVPSAVRYNGSKRVKPEEEEERDMKKSRGFDERELFSTAESSSSSSVFFVSQSCSLASEGKNLEGIQDSSDQITTSLGKNGCK
notes: not shown: Myc tag
Q: Does B5 bind [3]?
A: binds

Q: Does B5 bind (Flag-CRY2)?
A: binds

Q: Does B6 bind [4]?
A: binds
